The text below walks through data of patent publication US20200157197A1 (VENOMYX, published 2020).

In this assay the target is T1, Cobrotoxin (N. Atra, Miami Serpentarium) (Naja atra, UniProt P60770 22-83).
T1 sequence: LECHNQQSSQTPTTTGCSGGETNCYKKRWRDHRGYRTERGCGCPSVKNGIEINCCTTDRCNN
Nature of the assay: panning, phage ELISA and purified-VHH ELISA on coated toxin.

B1: Anti-cobrotoxin VHH (B9) (VHH)
VHH: QVQLQESGGGLAQAGGSLRLSCSASRNIFRVYGWYRQAPGKQREWVASITRDDSTAYADSVKGRFTISRDSAKNTMYLQMSSLRLEDTSTYYCAAQSISGTIQWGQGTQVTVSS
notes: also called VHH candidate against cobrotoxin
For B1, the binding result was “binds”.
